Laboratory results published in patent publication US7211423B2, “Acetyl CoA carboxylase 2 sequences and methods” (Bristol-Myers Squibb Co., priority 2004, dated 2007).

System: CC(=O)SCCNC(=O)CCNC(=O)[C@H](O)C(C)(C)COP(=O)(O)OP(=O)(O)OC[C@H]1O[C@@H](n2cnc3c(N)ncnc32)[C@H](O)[C@@H]1OP(=O)(O)O
Test: purified protein, by the assay type
Conditions: other: substrate varied, all other reagents saturating, 37° C., pH 7.5

Sequence of recombinant human ACC2 (Homo sapiens; V2141I) (chain, as listed by the source V2141I): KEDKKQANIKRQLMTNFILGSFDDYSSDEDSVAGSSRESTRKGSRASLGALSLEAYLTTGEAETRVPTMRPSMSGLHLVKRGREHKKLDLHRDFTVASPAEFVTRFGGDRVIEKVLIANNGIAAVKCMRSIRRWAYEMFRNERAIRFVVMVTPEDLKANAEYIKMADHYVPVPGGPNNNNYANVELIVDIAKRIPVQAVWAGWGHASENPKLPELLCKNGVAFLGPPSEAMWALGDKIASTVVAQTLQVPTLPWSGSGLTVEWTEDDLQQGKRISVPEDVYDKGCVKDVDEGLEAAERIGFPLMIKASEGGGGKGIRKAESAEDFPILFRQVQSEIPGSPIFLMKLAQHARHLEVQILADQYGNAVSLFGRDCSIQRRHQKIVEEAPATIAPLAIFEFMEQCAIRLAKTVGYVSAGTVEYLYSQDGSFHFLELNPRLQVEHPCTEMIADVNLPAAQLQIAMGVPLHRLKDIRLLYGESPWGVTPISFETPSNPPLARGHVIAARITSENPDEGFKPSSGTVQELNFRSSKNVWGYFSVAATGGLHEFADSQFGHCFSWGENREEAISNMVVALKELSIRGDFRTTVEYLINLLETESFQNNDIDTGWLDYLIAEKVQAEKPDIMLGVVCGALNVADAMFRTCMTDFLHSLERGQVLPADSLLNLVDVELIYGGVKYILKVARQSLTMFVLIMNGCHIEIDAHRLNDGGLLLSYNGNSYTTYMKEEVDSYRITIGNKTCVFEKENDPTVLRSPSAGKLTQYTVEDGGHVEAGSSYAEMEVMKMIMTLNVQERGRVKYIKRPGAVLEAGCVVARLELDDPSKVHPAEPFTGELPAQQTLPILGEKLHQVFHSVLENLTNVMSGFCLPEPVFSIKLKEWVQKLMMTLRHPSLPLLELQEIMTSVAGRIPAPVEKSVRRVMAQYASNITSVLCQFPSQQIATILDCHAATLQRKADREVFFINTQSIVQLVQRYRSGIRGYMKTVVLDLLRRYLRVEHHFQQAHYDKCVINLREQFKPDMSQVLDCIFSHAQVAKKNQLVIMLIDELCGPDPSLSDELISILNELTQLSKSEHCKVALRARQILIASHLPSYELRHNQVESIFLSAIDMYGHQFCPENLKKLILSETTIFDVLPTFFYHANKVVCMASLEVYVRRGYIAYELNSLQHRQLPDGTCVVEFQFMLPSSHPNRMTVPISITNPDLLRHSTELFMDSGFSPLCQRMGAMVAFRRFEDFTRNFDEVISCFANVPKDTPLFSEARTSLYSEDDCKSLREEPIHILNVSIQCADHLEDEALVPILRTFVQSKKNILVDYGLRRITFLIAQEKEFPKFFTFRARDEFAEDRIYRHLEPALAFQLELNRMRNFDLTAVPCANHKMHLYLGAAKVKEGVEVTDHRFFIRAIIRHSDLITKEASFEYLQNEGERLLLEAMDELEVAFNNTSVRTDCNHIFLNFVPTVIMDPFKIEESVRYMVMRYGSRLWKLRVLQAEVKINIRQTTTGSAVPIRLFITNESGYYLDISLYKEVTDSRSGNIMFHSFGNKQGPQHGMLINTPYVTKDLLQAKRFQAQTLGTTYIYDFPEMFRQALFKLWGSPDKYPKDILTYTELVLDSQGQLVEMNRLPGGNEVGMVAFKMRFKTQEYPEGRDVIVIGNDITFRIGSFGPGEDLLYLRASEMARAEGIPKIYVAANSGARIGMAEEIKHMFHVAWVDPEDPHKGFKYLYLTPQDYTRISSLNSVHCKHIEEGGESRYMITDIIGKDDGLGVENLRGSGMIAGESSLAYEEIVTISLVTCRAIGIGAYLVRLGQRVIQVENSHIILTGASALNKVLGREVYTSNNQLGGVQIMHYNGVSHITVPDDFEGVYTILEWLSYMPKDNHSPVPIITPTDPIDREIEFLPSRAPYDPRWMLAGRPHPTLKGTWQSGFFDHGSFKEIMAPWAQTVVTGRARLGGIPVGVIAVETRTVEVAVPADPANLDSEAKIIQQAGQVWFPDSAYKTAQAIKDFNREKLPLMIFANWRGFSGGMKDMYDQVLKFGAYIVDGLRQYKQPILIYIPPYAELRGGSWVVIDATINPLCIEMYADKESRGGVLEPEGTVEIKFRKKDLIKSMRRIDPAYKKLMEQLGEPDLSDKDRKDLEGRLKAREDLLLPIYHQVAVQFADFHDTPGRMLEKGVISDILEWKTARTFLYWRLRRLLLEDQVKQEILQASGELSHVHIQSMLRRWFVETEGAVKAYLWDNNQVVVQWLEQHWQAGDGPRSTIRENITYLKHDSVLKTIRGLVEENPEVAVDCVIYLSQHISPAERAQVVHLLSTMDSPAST

Substance “recombinant human ACC2 (Homo sapiens; V2141I)” has a Km of 23 µM.
